Measured values: patent US20240327530A1 (ICHNOS SCIENCES, published 2024)

Legend:
[1] = biological target: T1, Human IL-1RAP, membrane-bound on human cells (HaCaT, dermal fibroblasts, neutrophils, PBMC, whole blood) (human, UniProt Q9NPH3 21-570); test: flow cytometry on HaCaT cell line, nonlinear sigmoidal regression
T1 construct: Endogenous protein on cells
T1 sequence: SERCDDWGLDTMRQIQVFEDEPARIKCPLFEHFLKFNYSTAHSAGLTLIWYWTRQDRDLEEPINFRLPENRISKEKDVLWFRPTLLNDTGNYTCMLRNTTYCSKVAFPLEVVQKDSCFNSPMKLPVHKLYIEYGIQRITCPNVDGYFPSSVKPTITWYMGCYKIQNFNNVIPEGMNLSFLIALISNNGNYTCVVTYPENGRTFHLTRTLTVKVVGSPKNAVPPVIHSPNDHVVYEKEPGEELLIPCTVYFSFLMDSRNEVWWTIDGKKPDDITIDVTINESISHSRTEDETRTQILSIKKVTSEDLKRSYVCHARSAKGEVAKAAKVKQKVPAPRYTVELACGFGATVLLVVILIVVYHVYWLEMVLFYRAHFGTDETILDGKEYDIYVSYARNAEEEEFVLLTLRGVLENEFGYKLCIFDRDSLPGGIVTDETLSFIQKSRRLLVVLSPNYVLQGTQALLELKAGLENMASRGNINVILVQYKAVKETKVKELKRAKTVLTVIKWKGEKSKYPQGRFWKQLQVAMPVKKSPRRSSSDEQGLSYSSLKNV
Procedure: In brief, cells were harvested, counted, and plated at 50,000 cells/well in a 96-well round-bottom plate. The plate was centrifuged at 350 g for 3 minutes and the cells were resuspended in 50 μl of FACS® buffer (PBS (1×)+2.5% FCS+2 mM EDTA+0.05% NaN₃) containing various concentrations (ranging from 50 to 0.00003 μg/ml) of either anti-human IL-1RAP_candidate_1 or Isotype control_5 antibodies. Stained cells were incubated for 30 minutes at 4° C., washed twice with FACS® buffer at 350 g for 3 min and resuspended in […] of a monoclonal anti-human IgG PE-Cyanine7 secondary antibody (Biolegend, 409316) diluted 1/200 in FACS® buffer. Cells were then washed twice and resuspended in 200 μl of FACS® buffer containing SYTOX® Green dead cell stain (THERMO FISHER […]®, S34860) and samples were acquired on a CYTOFLEX® instruments (Beckman Coulter). The cells were gated based on size on FSC vs SSC and analyzed for PE-Cyanine7-geometric mean (geomean) fluorescence intensity using FLOWJO® software. Finally, relative geomean fluorescence intensity was calculated by subtracting fluorescence of anti-human IL-1RAP_candidate_1 per fluorescence of Isotype control_5. As depicted in FIGS. 6A, 6B, 6C, 6D, and 6E, anti-human IL-1RAP_candidate_1 antibody recognizes membrane-bound IL-1RAP expressed on HaCaT cell line and all primary cells. Multiple independent experiments were performed using multiple donors. […]

[2] = biological target: T2, Recombinant cynomolgus monkey IL-1RAP-ECD(S21-E359)-avi-his protein (cynomolgus monkey, UniProt P59822 21-359 (rhesus entry)); test: SPR, IgG1 LALA captured on anti-human IgG Fc CM5 chip, cynomolgus monkey IL-1RAP-avi-his as analyte in a concentration series, 1:1 fit, one representative replicate
T2 construct: also called cyno IL-1RAP-ECD-Avi-His; recombinant cynomolgus monkey IL-1RAP-avi-his protein
T2 sequence: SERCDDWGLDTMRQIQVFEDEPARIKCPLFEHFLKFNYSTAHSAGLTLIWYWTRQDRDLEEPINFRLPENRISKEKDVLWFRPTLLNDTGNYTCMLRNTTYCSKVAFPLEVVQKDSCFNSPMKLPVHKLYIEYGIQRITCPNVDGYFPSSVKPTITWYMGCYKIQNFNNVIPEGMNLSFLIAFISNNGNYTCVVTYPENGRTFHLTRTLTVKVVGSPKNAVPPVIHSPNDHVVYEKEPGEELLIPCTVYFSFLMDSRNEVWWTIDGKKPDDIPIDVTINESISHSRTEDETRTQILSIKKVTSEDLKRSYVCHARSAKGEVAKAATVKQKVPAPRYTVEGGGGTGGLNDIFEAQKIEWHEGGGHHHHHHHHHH
Procedure: Anti-IL-1RAP-C8-RecC-ES IgG1 LALA was immobilized on a Series S CM5 sensor CHIP coupled with anti-human IgG Fc. Human IL-1RAP-avi-his or cynomolgus monkey IL-1RAP-avi-his was injected over immobilized IgG1 LALA in concentration series in HBS-EP+ buffer. One representative replicate for human IL-1RAP and cynomolgus monkey IL-1RAP is presented. Plots are showing data expressed as number of resonance units (abbreviated RU; Y axis) vs. time (s, X axis). Dotted lines represent the measured data while solid lines represent simulated fits. KD: equilibrium dissociation constant; Ka: association constant; Kd: dissociation constant.
Surface plasmon resonance (SPR) was used to measure the binding affinities of the human IgG1 LALA molecules for human and cynomolgus monkey IL-1RAP. Affinities were measured on a BIACORE™ T200 instrument (BIACORE™, GE […]®) at 25° C. and analyzed with the BIACORE™ T200 Evaluation Software (v3.1). Measurements were performed on Series S CM5 sensor chips (BIACORE™ T200, BIACORE™, GE […]®, catalog no. BR100530) coupled with anti-human IgG Fc (BIACORE™, GE […]®, catalog no. BR100839) using a commercial amine coupling kit (BIACORE™, GE […]®, catalog no. BR100050). SPR measurements were performed with recombinant human IL-1RAP-avi-his protein produced in house (SEQ ID NO. 1) or recombinant cynomolgus monkey IL-1RAP-avi-his protein produced in house (SEQ ID NO. 2). The affinities to human and cynomolgus monkey IL-1RAP were assessed by immobilizing anti-IL-1RAP IgG1 LALA molecules and using IL-1RAP proteins as analyte. Around 150 RU of human IgG1 LALA were captured on fc2 of a Series S CM5 sensor chip coupled with anti-human IgG Fc. Recombinant human IL-1RAP-avi-his protein or recombinant cynomolgus monkey IL-1RAP-avi-his protein was injected in multi cycle kinetic at different concentrations ranging from 0.14 to 100 nM, in HBS-EP+ buffer (BIACORE™, GE […]®, catalog no. BR100669) at a flow rate of 30 μl/min for 3 min on fc1 and fc2 (fc1 being used as reference). Dissociation was monitored for 12 min.

Kd [1]: 0.75 nM
Kd [2]: 0.307 nM
koff [2]: 0.000196 s⁻¹
kon [2]: 638000 M⁻¹ s⁻¹
B1: Anti-IL-1RAP-C8-RecC-ES-IgG1LALA (antibody, V domains shown)
VH: QVQLVQSGAEVKKPGSSVKVSCKASGSPAEPYAIQWVRQAPGQGLEWMGYIIPSLGGYDYAQKFQGRVTITADESTSTAYMELSSLRSEDTAVYYCARGQTLYESGRQFDIWGQGTLVTVSS
VL: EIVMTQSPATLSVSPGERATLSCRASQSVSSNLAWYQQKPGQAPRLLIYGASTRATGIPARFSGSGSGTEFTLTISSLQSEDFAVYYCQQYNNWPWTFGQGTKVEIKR
notes: also called ISB 880-C8-recC-ES
